The values that follow come from PMC3961380, “Activation of 2′ 5′-Oligoadenylate Synthetase by Stem Loops at the 5′-End of the West Nile Virus Genome”.

Data set [1] concerns T1, OAS1 p42 isoform (transcript variant 2), wild type (human), P00973-2.
T1 sequence: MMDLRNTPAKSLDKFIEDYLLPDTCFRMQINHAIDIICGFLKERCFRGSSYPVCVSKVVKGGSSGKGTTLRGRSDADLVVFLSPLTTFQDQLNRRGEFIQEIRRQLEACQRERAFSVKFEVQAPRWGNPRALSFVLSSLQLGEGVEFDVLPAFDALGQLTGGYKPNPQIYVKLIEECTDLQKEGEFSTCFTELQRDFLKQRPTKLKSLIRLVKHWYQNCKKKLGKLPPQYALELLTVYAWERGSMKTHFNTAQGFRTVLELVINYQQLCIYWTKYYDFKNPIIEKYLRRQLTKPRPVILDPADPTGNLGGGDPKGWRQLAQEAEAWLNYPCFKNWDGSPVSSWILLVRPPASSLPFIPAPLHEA
The experiment in a line: OAS1 activation kinetics (Kapp, PPi assay). Particulars: pH 7.5, 10 min at room temperature (~20 C).

The test system of the next data set is OAS1 S162G (human). The data set is described as follows: OAS1 activation kinetics (Kapp, PPi assay). Particulars: pH 7.5, 10 min at room temperature (~20 C).
Data set [2] concerns the target T2, OAS1 p42 isoform (transcript variant 2), wild type (human, UniProt P00973-2 1-364).
T2 sequence: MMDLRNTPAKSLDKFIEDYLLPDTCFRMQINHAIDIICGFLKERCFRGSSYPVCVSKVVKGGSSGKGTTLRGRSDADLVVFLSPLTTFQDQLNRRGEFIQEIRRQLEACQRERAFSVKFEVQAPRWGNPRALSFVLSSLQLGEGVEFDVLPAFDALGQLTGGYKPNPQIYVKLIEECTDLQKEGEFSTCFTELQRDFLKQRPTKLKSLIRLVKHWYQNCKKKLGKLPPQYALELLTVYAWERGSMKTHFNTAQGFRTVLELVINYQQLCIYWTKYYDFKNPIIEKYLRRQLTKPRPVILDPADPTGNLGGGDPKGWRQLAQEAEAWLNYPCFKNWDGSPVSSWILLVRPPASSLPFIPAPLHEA
The experiment in a line: OAS1 activation kinetics (Kapp NA); 400 nM OAS1; no detectable affinity; […], pH 7.5, 10 min at room temperature (~20 C); […]. Particulars: protein: recombinant; tags: none after TEV cleavage of N-terminal GNSHT tag (GB1, NusA, Streptavidin, 6xHis); label: none (SYBR Gold stain); stem loop.

Data set [3] has as its target T2, OAS1 p42 isoform (transcript variant …). The experiment in a line: OAS1 activation kinetics (Kapp, PPi assay); 400 nM OAS1; […], pH 7.5, 10 min at room temperature (~20 C); […]. The following applies: protein: recombinant; tags: none after TEV cleavage of N-terminal GNSHT tag (GB1, NusA, Streptavidin, 6xHis); label: none (SYBR Gold stain); two stem loops.

For the molecule WNV SLI/II, in data set [1], the K half was determined as 528 nM.
In the case of WNV SLI/II/III, the values for the K half (with OAS1 S162G (human); in data set [1]) were 1490 nM and 1450 nM, respectively.
As to WNV SLI, in data set [1], the K half worked out at 5830 nM.
Turning to GCUGUUUCUUAGCACGAAGAUCUCGAUGUCUAAGAAACC (structured_RNA) [WNV SLII], in data set [2], the binding result was “no binding”.
In the case of AGGAGGGCCCGGCAAGAGCCGGGCUGUCAAUAUGCU (structured_RNA) [WNV SLIII], in data set [2], the binding result is on record as “no binding”.

B1: WNV SLII/III (structured_RNA)
RNA: GCUGUUUCUUAGCACGAAGAUCUCGAUGUCUAAGAAACCAGGAGGGCCCGGCAAGAGCCGGGCUGUCAAUAUGCU
As to B1, in data set [3], the “apparent K (half saturation)” value is 5.78 ± 0.452 µM.
